Biological target: B-lymphocyte antigen CD20 (UniProt P11836)
Assay: direct binding of I-125 labeled antibody

Chain of UniProt P11836 (P11836 whole entry): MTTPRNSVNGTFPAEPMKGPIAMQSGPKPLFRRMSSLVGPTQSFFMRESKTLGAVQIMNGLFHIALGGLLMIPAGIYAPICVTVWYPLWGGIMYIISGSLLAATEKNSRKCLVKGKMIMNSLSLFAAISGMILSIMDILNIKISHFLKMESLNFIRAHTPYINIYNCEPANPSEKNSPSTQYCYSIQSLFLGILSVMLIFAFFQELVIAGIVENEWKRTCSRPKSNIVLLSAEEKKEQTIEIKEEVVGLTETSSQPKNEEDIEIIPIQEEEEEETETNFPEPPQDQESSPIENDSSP

- apparent affinity constant (Kap): 3.5 nM
Substance: anti-CD20 monoclonal antibody 2B8
